Reference: the DeepSol protein solubility set

Assay: soluble on expression in E. coli; label from the status in PepcDB or PDB records

Row | Sequence | soluble on expression in E. coli
1 | MGSDKIHHHHHHMSARYLDPKKRHEFVFLFDVRDGNPNGDPDAGNLPRVDPETMHGLVTDVALKRKIRDYIALTREGKPRFAIFVQSRVALNRLILEGFQEAGIEPVSLQLAEEQMANESLLEHLDGLAEAGFSREGGTLYYSGQATTEKEIAKLLMGEEEAVAPFKKELEKLAKELAKAVKGRKITEEDRERAQAKLLERFFDIRMFGAVLSTGLNAGQVRGPVQLTFARSLDPIAPLEVSITRVAITREEDRARKETEMGRKPLVPYGLYRAHGFFNPFLAAKTGVQPEDLEALWDALQHLFELDRSAARGEMTVRGLAVFSHEDAKGNAPAHRLFGLIRVERREGVEAPRSFADYRVRAPKEGSLEAHGFPGVHLAWLVRPEGLEDLPPHVG | not soluble
2 | MGSDKIHHHHHHMLNDRARILLKTLVERYISEGEPVGSRTLSKHAGLDLSPASIRNIMSDLEEMGFVASPHTSAGRVPTPRGYRFFVDTLLTVRPLDQVSVNHLENSLAASDPQRLMTAASTLLSDLSQFAGLVMTPRRNPAFRQIEFLTLSDKRVLLIIVTMEGEVENRVIVTEQSYSAAALTEAANYFNQNFAGHSFDHVRSKLRDELGRMRDDITRLMAAAVDAGTQALDASQDNVVVSGSRKLLDVEELSSNMRSLRRLFDAFEKKTGLLQLLDQSRSAAGVQIFIGGESELLPLDECSLVTAPYSVDGVVVGTLGVVGPTRMAYERVVPIVDVTAKILSSALSQHK | not soluble
3 | MGSDKIHHHHHHMKIAVINFSGNVGKTTVSRHLLLPRIQGAELISVESVNADEGKTTALRGGQFAELQEYLQTVNSAIVDIGASNVDQLLFLMQSYRGSHEDFDCFVVPTVPPLKQQQDTIATLIDLSRLGVPPSRLKILFNMTEPGRPVEQTFYLLLAYLAQHPIAVPNTACSLGANEIYGRIRGIKSDLGTLARDTTDYKSLIAKAKDATEKLALAQKLATRRLASGVVLELDACFGALDLHALSAGASPTETSAEA | not soluble
4 | MSLTNEKSTEEIALGIRRRVFFHTMKNNGGYLSQACSAAESLALLYNELLTLGEPTLPKVPLPFRGVPSAHNPDAFTGAGYHGPVGPNFDRFFISPAHYALVIYSVLIEMGRMDEHALDHFNKDGGSVEMIGAEHSPGMEVTTGSLAQGLSMASGVAWARLRKKEPGKVWVYMSDGEFQEGQTWECLAAMSYHKIDNIRVIVDVNRQQCDGAMSSVLDLGDLASRVASFGVTCRSVDGHDLGALRAAAESAEAGKPLVILANTSPYQGMDFLKKRFPRLHYVRFKSAEERQEMQTALAIELGIDLTAMERAEGHHHHHH | not soluble
5 | MGSDKIHHHHHHMKIYVDGREVIINDNERNLLEALKNVGIEIPNLCYLSEASIYGACRMCLVEINGQITTSCTLKPYEGMKVKTNTPEIYEMRRNILELILATHNRDCTTCDRNGSCKLQKYAEDFGIRKIRFEALKKEHVRDESAPVVRDTSKCILCGDCVRVCEEIQGVGVIEFAKRGFESVVTTAFDTPLIETECVLCGQCVAYCPTGALSIRNDIDKLIEALESDKIVIGMIAPAVRAAIQEEFGIDEDVAMAEKLVSFLKTIGFDKVFDVSFGADLVAYEEAHEFYERLKKGERLPQFTSCCPAWVKHAEHTYPQYLQNLSSVKSPQQALGTVIKKIYARKLGVPEEKIFLVSFMPCTAKKFEAEREEHEGIVDIVLTTRELAQLIKMSRIDINRVEPQPFDRPYGVSSQAGLGFGKAGGVFSCVLSVLNEEIGIEKVDVKSPEDGIRVAEVTLKDGTSFKGAVIYGLGKVKKFLEERKDVEIIEVMACNYGCVGGGGQPYPNDSRIREHRAKVLRDTMGIKSLLTPVENLFLMKLYEEDLKDEHTRHEILHTTYRPRRRYPEKDVEILPVPNGEKRTVKVCLGTSCYTKGSYEILKKLVDYVKENDMEGKIEVLGTFCVENCGASPNVIVDDKIIGGATFEKVLEELSKNG | not soluble
6 | MGSDKIHHHHHHQQLLLIEKLDGTLEDYLFSDDFDEKVLLSCLFQISFSLHYLQKHYKFTHNDLHINNVMYSETTTKYLYYKFNNQYFKIPTYGKIFKIIDFGRSIFTYNNKIYMNDVFTKNSEAWGQFYYPPQVQFLTKPPEDIPNIEPNYNFDLCRLSMTIIEEIDKSKLSENMFNFLNDMCIDKFNENYCEMEDNFSLYINISKNAINSLPEDILNKTIFKQYKVIKKNFPSKLYYK | not soluble
7 | MTQKRTLLKYGILSLALAAPLSACAFDSLTVIGDSLSDTGNNGRWTWDSGQNKLYDEQLAERYGLELSPSSNGGSNYAAGGATATPELNPQDNTADQVRQWLAKTGGKADHNGLYIHWVGGNDLAAAIAQPTMAQQIAGNSATSAAAQVGLLLDAGAGLVVVPNVPDISATPMLLEAVITAGLGAAAPPALKAALDALAEGATPDFASRQQAIRKALLAAAATVSSNPFIQQLLVEQLLAGYEAAAGQASALTDYYNQMEEKGLEQHGGNIARADINGLFKEILANPQAFGLTNTVGMACPPGVSASACSSAMPGFNASQDYLFADHLHPGPQVHTIIAQYIQSIIAAPVQATYLNQSVQSMAQGSRTTLDSRYQQLRQGENPVGSLGMFGGYSGGYQRYDNNEADGNGNHNNLTVGVDYQLNEQVLLGGLIAGSLDKQHPDDNYRYDARGFQAAVFSHLRAGQAWLDSDLHFLSAKFSNIQRSITLGALRRVEEGETNGRLWGARLTSGYDFVMVPWLTTGPMLQYAWDYSHVNGYSEKLNTSTSMRFGDQNAHSQVGSAGWRLDLRHSIIHSWAQINYRRQFGDDTYVANGGLKSTALTFSRDGKTQDKNWVDIAIGADFPLSATVSAFAGLSQTAGLSDGNQTRYNVGFSARF | not soluble
8 | MGSDKIHHHHHHMRTNVRLLAYRLLRKYEKEKFISREDVDSVLSFLDDRDRRFFKELVWGVVRKEELLDWYINQLLKKKDIPPAVRVALRMGAYQLLFMNSVPDYAAVSETVKLVKNENFKKLVNAVLRRLRTVPEPKELHLVYSHPEWIVNYWRSFLPEEAVLRIMKWNQEPLPVMLRVNSLAATKEEVIKILAEEGTEAVPGKHAPFSLIVRKLGVPMNDSRVINDGLASVQGESSQLVPFFMELRPGLRVLDTCAAPGGKTTAIAELMKDQGKILAVDISREKIQLVEKHAKRLKLSSIETKIADAERLTEYVQDTFDRVLVDAPCTSLGTARNHPEVLRRVNKEDFEKFSEIQLRMVQQAWQLLEKGGILLYSTCTVTKEENTEVVKRFVYEQKDVEVIDIRDKMKEFEVEGIWDGYGFLMLPDETITPFYISVLRKMG | not soluble
9 | MNPGGAEVSVVIPAWNAEATLGRALASVRAQTLAPRQVIVVNDGSSDATPEIAARMATKTFPVTVIDRTGRGSGPAAARNAGIAAAGEPFVAFLDADDVWLPDKLARQMAALRASPDAVLCCCDAQWVGEDAPARTAHPTIYEDRPIKGGAEAWKEILLDCYVGTPCVVARRAALIEAGGFDERLVVGEDQDLWIRLALQGPVIALPEVLVRYGLSADSHMARHRALAASLWLPHFEALVSGLGARLSAGERDAILRARLWRMARSVYLDGRKDLGLSLMARAVAHGLPRRARMVFLARARLRSALGRNGLEHHHHHH | not soluble
10 | MQKVRLIVSGRVQGVGFRYATHTLALDIGDIYGRVWNNNDGTVEILAQSKDSDKIATFIQEVRKGPSKWAKVTYVDVTMANFEDFQDFQIGK | not soluble
11 | MAHHHHHHMLHRIPAYRDPLLQVLSDALKRALDFYRREMSAGMSVEFECRLGTFSASKHTYAHPFPTHTLTPALLDGQSTTPFFFFAGVAQPSFIAAHETLKTIGASMPPRSSTVLSVRTVGKDRLEYAMNEACNSGHLLTIVEKERIFSHDVRCPGWGADFRVSVSREKTIDRETWNQAKWESFTPNISRLRQRKSVRIDPFLSVDMAMVRSFTDHSRFVRPWSPELQVPFISAPHVSFDVELEVNMPALHRVVKQTRLVESTLGRTALDLLTVLQFLAAKRE | not soluble
12 | MTMIKKIETELLAAKATLSEISGRFKEFSDTQARLSADGDLLGLARLNKEHTGLEDSLLAADDTVRALESRLSVLRQAEYRPQFDKAHKTHLGAVQAETKAAEKLLAAIDAVFSAATDMQNLSDEVAATYHAARDLHNRAGLDHELRWPAPDGQIPIKISDRMNSLRDELVRTIRLYEDRLPQSQSLEGLRIIEQQQEELVRNSGRGFR | soluble
